Experimental data from publication PMC4983199 (Cell, 2016).
Residue numbers refer to the chain shown, from its start.

B1: ZV-2 mouse monoclonal antibody (antibody, V domains shown)
VH: QVQLQESGAELMKPGASVKLSCKTSGYTFIGYWIEWLKQRPGHGLEWVGEIFPGSGRTKYNEKFKGRATFTADTSSNMAYMQLSSLTTEDSAIYYCARYYYGSYYALDYWGQGTSVTVSS
VL: DIVMTQSPSSLSVSAGEKVTLSCKSSQSLLHSGNQKNYLAWYQQKPGQAPKLLIYGASTRESGVPDRFTGSGSGTDFTLTISSVQAEDLAVYYCQNDHSYPLTFGAGTKLELK
B2: ZV-54 mouse monoclonal antibody (antibody, V domains shown)
VH: QVQLQQSGVGLARPGTSVKLSCKASGYSFTTYGISWVTQRPGQGLEWIGVIYPRSNNTYYNERFRGKATLTADKSSSSAYLELRGLTAEDSAVYFCARENYGSVYWGQGTTLTVSS
VL: DIVMTQSQKFMSTSVGDRVTITCKASQSVGTAVAWYHQKPGQSPKLLIYSASNRYTGVPDRFTGSGSGTDFTLTITYMQSEDLADYFCQQFSNYPFTFGGGTKLEIK
B3: ZV-67 mouse monoclonal antibody (antibody, V domains shown)
VH: B2 VH with V2A, V9T, T16A, S28T, T31S, P41A, N56G, R63K, L81M
VL: B2 VL with T20S, S28N, H37Q, T76S, Y77N, N93S, F96Y
B4: ZV-48 mouse monoclonal antibody (antibody, V domains shown)
VH: QVQLQQPGAELLKPGASVKLSCKASGYSFSNYWMHWVKQRPGQGPEWIGMIHPNSGNTKYNEKFKNKATLTVDKSSSMVYMQLSSLTSEDSAVFYCARLGNDMDYWGQGTSVTVSS
VL: DIVMSQSPSSLAVSVGEKITMSCKSSQSLLYSNNEKNYLAWYQQKPGQSPKLLIYWASARDSGVPDRFTGSGSGTDFTLTISSVKAEDLAVFYCQQYYSYPYTFGGGTKLEIK

Experiments:
[1] = molecular target: T1, ZIKV E protein domain III (DIII), strain H/PF/2013 (Zika virus H/PF/2013); experiment: BLI
T1 chain: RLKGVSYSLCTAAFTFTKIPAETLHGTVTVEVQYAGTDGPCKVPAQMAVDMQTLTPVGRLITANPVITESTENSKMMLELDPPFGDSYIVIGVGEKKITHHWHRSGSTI

[2] = molecular target: ZIKV subviral particles (SVPs, prM-E), strain H/PF/2013 (Zika virus H/PF/2013, UniProt A0A024B7W1); experiment: ELISA
[3] = molecular target: T1, ZIKV E protein domain III (DIII), …; experiment: cell-based or functional assay
[4] = molecular target: ZIKV E protein (recombinant, ectodomain, strain H/PF/2013) (Zika virus H/PF/2013, UniProt A0A024B7W1); experiment: ELISA
ZIKV E protein (recombinant, ectodomain, strain H/PF/2013), sequence (A0A024B7W1 whole entry, looked up, the tested form may be a part): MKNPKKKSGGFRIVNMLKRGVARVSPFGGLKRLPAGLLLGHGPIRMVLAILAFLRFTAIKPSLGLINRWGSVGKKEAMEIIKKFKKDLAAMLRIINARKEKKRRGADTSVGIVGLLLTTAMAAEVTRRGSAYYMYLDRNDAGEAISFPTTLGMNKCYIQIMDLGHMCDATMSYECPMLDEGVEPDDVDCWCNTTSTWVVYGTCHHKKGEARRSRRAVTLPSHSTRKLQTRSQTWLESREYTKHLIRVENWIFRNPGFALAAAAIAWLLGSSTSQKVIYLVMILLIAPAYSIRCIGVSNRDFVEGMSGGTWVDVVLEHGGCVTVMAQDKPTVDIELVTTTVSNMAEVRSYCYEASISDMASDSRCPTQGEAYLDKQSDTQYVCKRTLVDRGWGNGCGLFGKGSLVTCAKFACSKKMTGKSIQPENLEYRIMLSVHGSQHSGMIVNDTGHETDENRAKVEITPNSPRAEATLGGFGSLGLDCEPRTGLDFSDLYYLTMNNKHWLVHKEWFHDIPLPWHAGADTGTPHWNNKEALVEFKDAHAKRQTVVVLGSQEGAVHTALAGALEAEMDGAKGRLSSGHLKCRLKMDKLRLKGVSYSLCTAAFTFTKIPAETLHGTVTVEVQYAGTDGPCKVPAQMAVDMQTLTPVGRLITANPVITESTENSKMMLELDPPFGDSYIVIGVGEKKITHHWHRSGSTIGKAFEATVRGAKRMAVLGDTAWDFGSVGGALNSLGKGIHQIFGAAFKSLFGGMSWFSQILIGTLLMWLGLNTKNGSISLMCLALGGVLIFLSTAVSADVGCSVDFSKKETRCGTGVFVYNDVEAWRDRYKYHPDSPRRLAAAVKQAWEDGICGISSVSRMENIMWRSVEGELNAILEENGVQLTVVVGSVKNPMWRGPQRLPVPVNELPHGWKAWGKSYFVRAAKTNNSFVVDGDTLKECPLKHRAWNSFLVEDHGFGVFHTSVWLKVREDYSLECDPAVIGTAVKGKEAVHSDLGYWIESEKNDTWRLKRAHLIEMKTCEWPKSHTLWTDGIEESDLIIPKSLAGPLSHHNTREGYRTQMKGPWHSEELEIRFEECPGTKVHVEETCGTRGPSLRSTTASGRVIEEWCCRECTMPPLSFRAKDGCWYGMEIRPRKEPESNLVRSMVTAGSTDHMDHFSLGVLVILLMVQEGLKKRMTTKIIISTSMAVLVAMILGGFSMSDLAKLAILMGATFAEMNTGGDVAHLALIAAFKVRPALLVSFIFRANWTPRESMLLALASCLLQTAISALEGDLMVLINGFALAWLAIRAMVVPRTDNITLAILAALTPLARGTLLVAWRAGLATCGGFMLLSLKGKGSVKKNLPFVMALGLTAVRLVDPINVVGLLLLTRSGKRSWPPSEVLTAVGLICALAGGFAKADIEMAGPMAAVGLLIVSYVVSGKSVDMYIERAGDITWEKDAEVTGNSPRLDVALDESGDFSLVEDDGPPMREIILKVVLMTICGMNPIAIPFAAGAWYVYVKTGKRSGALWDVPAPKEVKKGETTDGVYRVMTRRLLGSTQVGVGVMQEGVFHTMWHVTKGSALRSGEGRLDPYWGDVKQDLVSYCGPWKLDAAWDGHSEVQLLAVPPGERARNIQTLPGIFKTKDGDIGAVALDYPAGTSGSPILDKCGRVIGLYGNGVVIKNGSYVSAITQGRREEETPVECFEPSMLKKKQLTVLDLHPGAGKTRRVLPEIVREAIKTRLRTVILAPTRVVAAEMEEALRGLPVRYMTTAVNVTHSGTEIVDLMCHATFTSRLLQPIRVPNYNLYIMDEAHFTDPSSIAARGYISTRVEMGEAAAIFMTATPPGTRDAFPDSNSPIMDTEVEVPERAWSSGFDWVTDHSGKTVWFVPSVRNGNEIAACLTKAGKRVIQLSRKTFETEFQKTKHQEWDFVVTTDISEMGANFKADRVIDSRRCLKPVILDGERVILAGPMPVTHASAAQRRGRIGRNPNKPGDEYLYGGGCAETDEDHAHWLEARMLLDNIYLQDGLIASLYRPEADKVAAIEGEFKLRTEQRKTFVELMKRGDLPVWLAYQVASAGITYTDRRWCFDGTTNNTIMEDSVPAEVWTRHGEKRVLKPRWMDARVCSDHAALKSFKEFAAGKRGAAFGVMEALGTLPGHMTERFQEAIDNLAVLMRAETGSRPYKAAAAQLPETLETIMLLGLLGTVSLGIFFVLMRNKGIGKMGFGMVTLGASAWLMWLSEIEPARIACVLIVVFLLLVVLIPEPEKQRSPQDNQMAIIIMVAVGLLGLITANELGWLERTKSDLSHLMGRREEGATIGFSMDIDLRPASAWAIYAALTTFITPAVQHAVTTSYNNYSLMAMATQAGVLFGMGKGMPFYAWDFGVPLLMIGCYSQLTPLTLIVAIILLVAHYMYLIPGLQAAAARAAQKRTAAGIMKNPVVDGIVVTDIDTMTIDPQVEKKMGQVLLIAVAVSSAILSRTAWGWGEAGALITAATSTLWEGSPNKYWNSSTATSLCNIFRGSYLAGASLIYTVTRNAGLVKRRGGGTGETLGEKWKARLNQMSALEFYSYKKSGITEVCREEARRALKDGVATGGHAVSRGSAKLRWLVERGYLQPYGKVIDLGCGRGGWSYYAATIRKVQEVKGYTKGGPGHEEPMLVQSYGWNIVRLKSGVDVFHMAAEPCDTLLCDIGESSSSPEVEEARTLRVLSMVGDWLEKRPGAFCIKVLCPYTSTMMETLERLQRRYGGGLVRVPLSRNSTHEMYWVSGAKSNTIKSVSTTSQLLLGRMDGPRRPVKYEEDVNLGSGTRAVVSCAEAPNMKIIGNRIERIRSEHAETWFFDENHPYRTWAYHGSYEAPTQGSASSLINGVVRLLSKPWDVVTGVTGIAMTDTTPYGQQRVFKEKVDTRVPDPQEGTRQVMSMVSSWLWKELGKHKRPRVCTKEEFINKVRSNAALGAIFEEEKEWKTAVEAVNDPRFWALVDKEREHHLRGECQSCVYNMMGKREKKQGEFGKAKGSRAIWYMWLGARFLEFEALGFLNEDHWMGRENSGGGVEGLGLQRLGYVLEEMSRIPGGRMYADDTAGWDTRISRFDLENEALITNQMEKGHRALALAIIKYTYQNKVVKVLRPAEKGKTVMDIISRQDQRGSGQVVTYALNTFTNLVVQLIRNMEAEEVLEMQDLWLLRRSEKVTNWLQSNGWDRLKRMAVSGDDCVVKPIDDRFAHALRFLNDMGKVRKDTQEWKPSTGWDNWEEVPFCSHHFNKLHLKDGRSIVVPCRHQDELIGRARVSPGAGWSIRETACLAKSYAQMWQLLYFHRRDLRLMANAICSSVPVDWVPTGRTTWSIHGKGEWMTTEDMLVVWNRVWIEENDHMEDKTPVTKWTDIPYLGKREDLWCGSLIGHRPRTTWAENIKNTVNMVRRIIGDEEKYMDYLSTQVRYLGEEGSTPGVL

Row | Binder | Kd [1] [nM] | t1/2 [1] [min] | binding result [2] | FRNT50, focus reduction neutralization of ZIKV H/PF/2013 on Vero cells [3] [ng/mL] | binding result [4]
1 | B1 | 266 ± 42 | 0.3 | – | – | –
2 | B2 | 7.9 ± 0.2 | 33 | binds | 87 | binds
3 | B3 | 8.8 ± 1.7 | 13.8 | – | 143 | –
4 | B4 | 35 ± 0.8 | 3.2 | – | 485 | binds
